Experimental data taken from patent US20030022247A1, “Substance which inhibits binding of information transfer molecule for 1175-tyrosine phosphorylated KDR/FLK-1 and usages of the same” (priority 2000, published 2003).
Square brackets hold non-standard residues; d marks the D form. Ends that are not written are not given here. pY = N[C@@H](Cc1ccc(OP(=O)(O)O)cc1)C(=O)O

Legend:
[1] = system: various cancer cells transplanted into mice; details: cited from earlier work
[2] = target: T1, 1175-tyrosine phosphorylated KDR/Flk-1 (Homo sapiens, UniProt P35968); assay: Tissue immunostaining of human umbilical cord vein endothelial cells; assay type: cell-based; details: 1 μg/ml peptide; cells 5 minutes after the VEGF stimulation
T1 construct: expressing endogenous KDR/Flk-1; host or cells: human umbilical cord vein endothelial cells (HUVEC)
Method: After blocking the fixed cells for 30 minutes with PBS containing 1% goat serum, tissue immunostaining was carried out using the anti-PY1175 antibody. The detection was carried out by fluorescence microscopic observation 30 minutes after treatment with an FITC-labeled anti-rabbit IgG antibody (manufactured by Cappel) diluted to 1/100. […] Accordingly, the anti-PY1175 antibody was useful for the detection of the 1175-tyrosine phosphorylation of KDR/Flk-1 by not only immunoblotting but also tissue immunostaining.

[3] = target: T2, binding of the auto-phosphorylated KDR/Flk-1 and PLC-γ (Homo sapiens, UniProt P19174+P35968); assay: In vitro binding of GST-PLC-γ C-SH2 to KDR/Flk-1 from NIH3T3-KDR cell extract; assay type: biochemical; details: coexisting with GST-PLC-γ C-SH2 beads and extract of VEGF-stimulated NIH3T3-KDR
T2 construct: a fusion protein of GST and SH2 domain of the C-terminal side of PLC-γ (GST-PLC-γ C-SH2); host or cells: NIH3T3-KDR cell extract (KDR/Flk-1)
Method: Onto glutathione-Sepharose 4B beads (manufactured by Amersham Pharmacia Biotech), 1.5 μg of GST, a fusion protein of GST and SH2 domain (2 domains) of PLC-γ (GST-PLC-γ SH2-SH2), a fusion protein of GST and SH2 domain of the N-terminal side of PLC-γ (GST-PLC-γ N-SH2) and a fusion protein of GST and SH2 domain of the C-terminal side of PLC-γ (GST-PLC-γ C-SH2) (all manufactured by Santa Cruz Biotechnology Inc.) was immobilized respectively, and the cell extracts were added thereto, followed by incubation at 4° C. for 2 hours. The beads were washed three times with a cooled cell extraction buffer and heated in an SDS sample buffer to dissolve the protein bound to the beads, and then SDS-PAGE was carried out. The KDR/Flk-1 bound to each of the added proteins was detected by immunoblotting using the anti-KDR/Flk-1 antibody. The KDR/Flk-1 was detected in the VEGF-stimulated cell with GST-PLC-γ SH2-SH2 and GST-PLC-γ C-SH2, but KDR/Flk-1 was not detected with GST-PLC-γ N-SH2.
The same test of (2) was carried out by allowing the anti-PY1175 antibody and the PY1175 peptide to coexist at the time of the reaction of GST-PLC-γ C-SH2-immobilized beads with the cell extract. As a result, KDR/Flk-1 was not detected even in the VEGF-stimulated cell, and binding of the auto-phosphorylated KDR/Flk-1 and PLC-γ was inhibited by the anti-PY1175 antibody and the PY1175 peptide.

Flt-1 = Flt-1 (Homo sapiens, UniProt P17948); details: VEGF binding to Flt-1; cited from earlier work
[4] = target: T3, mutated KDR/Flk-1 Y1175F (1175-tyrosine replaced by phenylalanine) (human, UniProt P35968 20-1356); assay: immunoprecipitation with anti-KDR/Flk-1 antibody, immunoblotting with anti-PLC-γ antibody
T3 construct: Expressed in MSS31 cells by an adenovirus vector, VEGF-stimulated; cell extract; Phosphorylation at other tyrosines not specified

In the case of `Cc1cc(C)c(/C=C2\C(=O)Nc3ccccc32)[nH]1` [SU5416], the “angiogenesis, growth or metastasis of cancer cells” value [1] is given as “inhibits angiogenesis, growth or metastasis”.

With “PY1175 peptide: SEQ ID NO:1: cysteine added to N-terminus of positions 1171 to 1180 of human KDR/Flk-1, tyrosine 1175 phosphorylated (CDGKD[pY]IVLPI)” the “inhibition of anti-PY1175 antibody staining by coexisting peptide” value [2] was “staining was inhibited” and the “inhibition of binding of auto-phosphorylated KDR/Flk-1 and PLC-γ (GST-PLC-γ C-SH2)” value [3] was “inhibited”.

For “vascular endothelial growth factor [VEGF]”, the Kd (Flt-1) is given as 20 pM.

In the case of “Y1175 peptide: SEQ ID NO:2: the same amino acid sequence of the PY1175, but the tyrosine is not phosphorylated (CDGKDYIVLPI; a peptide SEQ ID NO1 without phosphorylation) [reference compound]”, the “inhibition of binding of auto-phosphorylated KDR/Flk-1 and PLC-γ (GST-PLC-γ C-SH2)” value [3] is reported as “inhibition was not found”.

B1: phospholipase C-γ (PLC-γ) (enzyme, mouse, UniProt Q62077 2-1302, looked up)
chain: AGVATPCANGCGPGAPSEAEVLHLCRSLEVGTVMTLFYSKKSQRPERKTFQVKLETRQITWSRGADKIEGSIDIREIKEIRPGKTSRDFDRYQEDPAFRPDQSHCFVILYGMEFRLKTLSLQATSEDEVNMWIKGLTWLMEDTLQAATPLQIERWLRKQFYSVDRNREDRISAKDLKNMLSQVNYRVPNMRFLRERLTDLEQRSGDITYGQFAQLYRSLMYSAQKTMDLPFLETNALRTGERPEHCQVSLSEFQQFLLEYQGELWAVDRLQVQEFMLSFLRDPLREIEEPYFFLDELVTFLFSKENSVWNSQLDAVCPDTMNNPLSHYWISSSHNTYLTGDQFSSESSLEAYARCLRMGCRCIELDCWDGPDGMPVIYHGHTLTTKIKFSDVLHTIKEHAFVASEYPVILSIEDHCSIAQQRNMAQHFRKVLGDTLLTKPVDIAADGLPSPNQLRRKILIKHKKLAEGSAYEEVPTSVMYSENDISNSIKNGILYLEDPVNHEWYPHYFVLTSSKIYYSEETSSDQGNEDEEEPKEASSSTELHSSEKWFHGKLGAGRDGRHIAERLLTEYCIETGAPDGSFLVRESETFVGDYTLSFWRNGKVQHCRIHSRQDAGTPKFFLTDNLVFDSLYDLITHYQQVPLRCNEFEMRLSEPVPQTNAHESKEWYHASLTRAQAEHMLMRVPRDGAFLVRKRNEPNSYAISFRAEGKIKHCRVQQEGQTVMLGNSEFDSLVDLISYYEKHPLYRKMKLRYPINEEALEKIGTAEPDYGALYEGRNPGFYVEANPMPTFKCAVKALFDYKAQREDELTFTKSAIIQNVEKQDGGWWRGDYGGKKQLWFPSNYVEEMINPAVLEPEREHLDENSPLGDLLRGVLDVPACQIAIRPEGKNNRLFVFSISMPSVAQWSLDVAADSQEELQDWVKKIREVAQTADARLTEGKMMERRKKIALELSELVVYCRPVPFDEEKIGTERACYRDMSSFPETKAEKYVNKAKGKKFLQYNRLQLSRIYPKGQRLDSSNYDPLPMWICGSQLVALNFQTPDKPMQMNQALFMAGGHCGYVLQPSTMRDEAFDPFDKSSLRGLEPCVICIEVLGARHLPKNGRGIVCPFVEIEVAGAEYDSTKQKTEFVVDNGLNPVWPAKPFHFQISNPEFAFLRFVVYEEDMFSDQNFLAQATFPVKGLKTGYRAVPLKNNYSEDLELASLLIKIDIFPAKENGDLSPFSGISLRERASDASSQLFHVRAREGSFEARYQQPFEDFRISQEHLADHFDSRERSTSDGPSSATNLIEDPLHDKLWKCSL
notes: whole, on cells; Endogenous intracellular PLC-γ co-precipitated with KDR/Flk-1 from MSS31 cell extracts
B1: no binding [4].
